Reference: patent US20140161790A1

Legend:
[1] = biological target: human FcRn (heterodimer of alpha chain and beta2-microglobulin) (human) (UniProt P55899); experiment: Biacore (SPR), column 'hFcRn Affinity (uM)'; antibody captured on anti-hFab CM5 chip, hFcRn as analyte, PBS pH 6.0, 1:1 Langmuir fit
[2] = biological target: recombinant human TNF (human) (UniProt P01375); experiment: Biacore (SPR), column 'hTNF Affinity (pM)'; antibody amine-coupled to a CM4 chip, recombinant human TNF as analyte at 6.25-200 nM in HBS-EP pH 7.4, 1:1 Langmuir fit
recombinant human TNF (human), sequence (P01375 77-233 limits assumed): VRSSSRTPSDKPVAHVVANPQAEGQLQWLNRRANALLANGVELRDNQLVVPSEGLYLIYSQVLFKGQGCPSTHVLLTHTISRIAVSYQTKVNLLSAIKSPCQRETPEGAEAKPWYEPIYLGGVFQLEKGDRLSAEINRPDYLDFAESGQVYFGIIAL

- Kd [1]: 2000 nM
- Kd [2]: 0.00042 nM
Substance: Humira (Commercial) adalimumab (antibody)
